# From IntAct's records for PubMed 31515488
# B1: Kinetochore protein NDC80 homolog (Homo sapiens), O14777 (parent)
# chain: MKRSSVSSGGAGRLSMQELRSQDVNKQGLYTPQTKEKPTFGKLSINKPTSERKVSLFGKRTSGHGSRNSQLGIFSSSEKIKDPRPLNDKAFIQQCIRQLCEFLTENGYAHNVSMKSLQAPSVKDFLKIFTFLYGFLCPSYELPDTKFEEEVPRIFKDLGYPFALSKSSMYTVGAPHTWPHIVAALVWLIDCIKIHTAMKESSPLFDDGQPWGEETEDGIMHNKLFLDYTIKCYESFMSGADSFDEMNAELQSKLKDLFNVDAFKLESLEAKNRALNEQIARLEQEREKEPNRLESLRKLKASLQGDVQKYQAYMSNLESHSAILDQKLNGLNEEIARVELECETIKQENTRLQNIIDNQKYSVADIERINHERNELQQTINKLTKDLEAEQQKLWNEELKYARGKEAIETQLAEYHKLARKLKLIPKGAENSKGYDFEIKFNPEAGANCLVKYRAQVYVPLKELLNETEEEINKALNKKMGLEDTLEQLNAMITESKRSVRTLKEEVQKLDDLYQQKIKEAEEEDEKCASELESLEKHKHLLESTVNQGLSEAMNELDAVQREYQLVVQTTTEERRKVGNNLQRLLEMVATHVGSVEKHLEEQIAKVDREYEECMSEDLSENIKEIRDKYEKKATLIKSSEE
# B2: Methylthioribulose-1-phosphate dehydratase (Homo sapiens), Q96GX9 (parent)
# chain: MSGCDAREGDCCSRRCGAQDKEHPRYLIPELCKQFYHLGWVTGTGGGISLKHGDEIYIAPSGVQKERIQPEDMFVCDINEKDISGPSPSKKLKKSQCTPLFMNAYTMRGAGAVIHTHSKAAVMATLLFPGREFKITHQEMIKGIKKCTSGGYYRYDDMLVVPIIENTPEEKDLKDRMAHAMNEYPDSCAVLVRRHGVYVWGETWEKAKTMCECYDYLFDIAVSMKKVGLDPSQLPVGENGIV
# partner: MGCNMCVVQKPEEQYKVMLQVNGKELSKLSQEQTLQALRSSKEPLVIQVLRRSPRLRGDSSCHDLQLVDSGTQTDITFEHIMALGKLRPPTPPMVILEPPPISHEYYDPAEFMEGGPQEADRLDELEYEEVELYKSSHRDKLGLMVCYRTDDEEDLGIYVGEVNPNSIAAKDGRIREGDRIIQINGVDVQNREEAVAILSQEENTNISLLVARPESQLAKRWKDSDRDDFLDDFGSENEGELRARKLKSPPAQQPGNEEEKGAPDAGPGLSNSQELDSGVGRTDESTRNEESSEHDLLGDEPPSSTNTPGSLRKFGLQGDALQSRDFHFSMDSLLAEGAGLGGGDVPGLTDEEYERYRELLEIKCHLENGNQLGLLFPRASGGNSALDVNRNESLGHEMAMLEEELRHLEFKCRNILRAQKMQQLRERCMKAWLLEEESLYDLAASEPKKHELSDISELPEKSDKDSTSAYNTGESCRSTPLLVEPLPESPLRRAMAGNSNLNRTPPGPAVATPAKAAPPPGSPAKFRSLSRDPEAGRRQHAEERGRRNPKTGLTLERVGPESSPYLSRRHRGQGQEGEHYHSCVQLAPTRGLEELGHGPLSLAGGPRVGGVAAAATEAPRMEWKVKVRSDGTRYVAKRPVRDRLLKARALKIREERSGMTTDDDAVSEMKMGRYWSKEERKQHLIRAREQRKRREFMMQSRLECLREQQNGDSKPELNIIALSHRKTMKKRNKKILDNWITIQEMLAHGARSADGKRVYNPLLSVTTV
# B3: Zinc finger protein 473 (Homo sapiens), Q8WTR7 (parent)
# chain: MAEEFVTLKDVGMDFTLGDWEQLGLEQGDTFWDTALDNCQDLFLLDPPRPNLTSHPDGSEDLEPLAGGSPEATSPDVTETKNSPLMEDFFEEGFSQEIIEMLSKDGFWNSNFGEACIEDTWLDSLLGDPESLLRSDIATNGESPTECKSHELKRGLSPVSTVSTGEDSMVHNVSEKTLTPAKSKEYRGEFFSYSDHSQQDSVQEGEKPYQCSECGKSFSGSYRLTQHWITHTREKPTVHQECEQGFDRNASLSVYPKTHTGYKFYVCNEYGTTFSQSTYLWHQKTHTGEKPCKSQDSDHPPSHDTQPGEHQKTHTDSKSYNCNECGKAFTRIFHLTRHQKIHTRKRYECSKCQATFNLRKHLIQHQKTHAAKTTSECQECGKIFRHSSLLIEHQALHAGEEPYKCNERGKSFRHNSTLKIHQRVHSGEKPYKCSECGKAFHRHTHLNEHRRIHTGYRPHKCQECVRSFSRPSHLMRHQAIHTAEKPYSCAECKETFSDNNRLVQHQKMHTVKTPYECQECGERFICGSTLKCHESVHAREKQGFFVSGKILDQNPEQKEKCFKCNKCEKTFSCSKYLTQHERIHTRGVKPFECDQCGKAFGQSTRLIHHQRIHSRVRLYKWGEQGKAISSASLIKLQSFHTKEHPFKCNECGKTFSHSAHLSKHQLIHAGENPFKCSKCDRVFTQRNYLVQHERTHARKKPLVCNECGKTFRQSSCLSKHQRIHSGEKPYVCDYCGKAFGLSAELVRHQRIHTGEKPYVCQECGKAFTQSSCLSIHRRVHTGEKPYRCGECGKAFAQKANLTQHQRIHTGEKPYSCNVCGKAFVLSAHLNQHLRVHTQETLYQCQRCQKAFRCHSSLSRHQRVHNKQQYCL
# Variants of: B1
# Conditions: with amol2_human AMOTL2, Q9Y2J4
# amol2_human AMOTL2, Q9Y2J4, sequence (Q9Y2J4 whole entry): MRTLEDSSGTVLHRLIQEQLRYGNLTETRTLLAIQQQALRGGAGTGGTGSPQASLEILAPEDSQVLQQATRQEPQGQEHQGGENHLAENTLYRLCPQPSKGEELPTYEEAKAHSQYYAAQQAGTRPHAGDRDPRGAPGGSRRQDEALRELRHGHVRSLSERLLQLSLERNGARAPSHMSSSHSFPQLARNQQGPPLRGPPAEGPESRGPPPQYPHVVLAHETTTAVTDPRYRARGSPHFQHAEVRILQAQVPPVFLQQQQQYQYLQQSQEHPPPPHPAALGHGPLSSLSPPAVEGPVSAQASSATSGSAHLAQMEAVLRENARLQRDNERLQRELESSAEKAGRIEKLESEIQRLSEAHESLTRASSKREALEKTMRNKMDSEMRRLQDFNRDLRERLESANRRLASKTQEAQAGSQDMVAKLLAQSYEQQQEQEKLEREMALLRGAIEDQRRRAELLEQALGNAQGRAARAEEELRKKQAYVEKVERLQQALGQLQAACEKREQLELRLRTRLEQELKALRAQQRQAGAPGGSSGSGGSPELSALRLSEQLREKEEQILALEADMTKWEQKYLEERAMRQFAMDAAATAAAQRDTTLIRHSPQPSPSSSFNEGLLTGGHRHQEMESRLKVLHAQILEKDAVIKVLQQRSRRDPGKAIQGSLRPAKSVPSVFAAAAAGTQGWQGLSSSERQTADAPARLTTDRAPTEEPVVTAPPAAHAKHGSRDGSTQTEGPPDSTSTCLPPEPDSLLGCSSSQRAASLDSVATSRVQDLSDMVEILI
row,effect of a mutation on the interaction,Variant
1,with no effect,A605P

# Variants of: B1
# Conditions: with txlna_human TXLNA
row,effect of a mutation on the interaction,Variant
1,with no effect,A605P

# Variants of: B1
# Conditions: with atf4_human ATF4, P18848
# atf4_human ATF4, P18848, sequence (P18848 whole entry): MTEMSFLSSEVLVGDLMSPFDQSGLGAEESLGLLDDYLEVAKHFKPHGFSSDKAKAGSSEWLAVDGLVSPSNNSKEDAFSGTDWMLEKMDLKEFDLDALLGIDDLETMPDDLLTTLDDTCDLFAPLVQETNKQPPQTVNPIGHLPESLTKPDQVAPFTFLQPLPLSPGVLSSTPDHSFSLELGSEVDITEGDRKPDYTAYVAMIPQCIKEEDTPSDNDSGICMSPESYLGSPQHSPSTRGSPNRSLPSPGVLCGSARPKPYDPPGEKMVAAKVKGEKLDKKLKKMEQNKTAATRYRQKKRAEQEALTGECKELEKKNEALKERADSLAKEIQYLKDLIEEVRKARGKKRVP
row,effect of a mutation on the interaction,Variant
1,disrupting interaction strength,A605P

# Variants of: B1
# Conditions: with tnip1_human TNIP1, Q15025
# tnip1_human TNIP1, Q15025, sequence (Q15025 whole entry): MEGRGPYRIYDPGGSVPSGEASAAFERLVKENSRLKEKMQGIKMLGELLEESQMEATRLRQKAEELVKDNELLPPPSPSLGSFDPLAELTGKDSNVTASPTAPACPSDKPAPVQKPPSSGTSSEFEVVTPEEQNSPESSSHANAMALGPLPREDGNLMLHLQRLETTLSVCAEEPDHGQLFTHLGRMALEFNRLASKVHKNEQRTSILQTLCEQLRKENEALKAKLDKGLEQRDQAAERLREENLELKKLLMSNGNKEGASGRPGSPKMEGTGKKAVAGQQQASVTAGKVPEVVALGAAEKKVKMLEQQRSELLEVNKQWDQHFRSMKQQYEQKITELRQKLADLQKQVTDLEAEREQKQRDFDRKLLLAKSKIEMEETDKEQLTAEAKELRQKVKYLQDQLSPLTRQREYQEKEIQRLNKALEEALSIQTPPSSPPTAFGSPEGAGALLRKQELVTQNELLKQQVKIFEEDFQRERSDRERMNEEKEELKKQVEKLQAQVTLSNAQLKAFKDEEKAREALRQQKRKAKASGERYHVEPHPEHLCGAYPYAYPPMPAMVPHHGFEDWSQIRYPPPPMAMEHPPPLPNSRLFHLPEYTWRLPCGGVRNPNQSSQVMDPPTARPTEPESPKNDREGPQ
row,effect of a mutation on the interaction,Variant
1,disrupting interaction strength,A605P

# Variants of: B2
# Conditions: with pdzd4_human PDZD4, Q76G19
row,effect of a mutation on the interaction,Variant
1,with no effect,M181V
2,with no effect,G111A

# Variants of: B3
# Conditions: with gpt2l_human GPATCH2L
row,Variant,effect of a mutation on the interaction
1,Y456H,with no effect
2,S59G,with no effect

# Second part, the variant after the results:
row,effect of a mutation on the interaction,Variant
1,with no effect,R605Q
2,with no effect,T654I

# Variants of: B3
# Conditions: with zn792_human ZNF792, Q3KQV3
# zn792_human ZNF792, Q3KQV3, sequence (Q3KQV3 whole entry): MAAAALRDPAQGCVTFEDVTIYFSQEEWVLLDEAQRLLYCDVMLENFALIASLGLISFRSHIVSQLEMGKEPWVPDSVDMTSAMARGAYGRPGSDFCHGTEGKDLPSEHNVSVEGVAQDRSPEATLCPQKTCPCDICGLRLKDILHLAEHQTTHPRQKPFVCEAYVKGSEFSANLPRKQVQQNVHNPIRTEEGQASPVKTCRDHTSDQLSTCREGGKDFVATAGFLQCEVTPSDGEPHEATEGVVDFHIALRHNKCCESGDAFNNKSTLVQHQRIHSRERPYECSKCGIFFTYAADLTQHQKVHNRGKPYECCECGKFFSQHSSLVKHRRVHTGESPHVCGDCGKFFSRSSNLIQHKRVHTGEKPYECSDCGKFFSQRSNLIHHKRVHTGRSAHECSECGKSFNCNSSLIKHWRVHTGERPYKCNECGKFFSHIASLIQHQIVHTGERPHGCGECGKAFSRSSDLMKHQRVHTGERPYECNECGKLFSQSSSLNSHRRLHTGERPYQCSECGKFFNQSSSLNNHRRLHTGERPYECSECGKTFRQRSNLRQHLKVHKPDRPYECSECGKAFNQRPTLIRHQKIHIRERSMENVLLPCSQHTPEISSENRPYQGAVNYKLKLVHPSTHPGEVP
row,effect of a mutation on the interaction,Variant
1,with no effect,R605Q
2,with no effect,Y456H
3,with no effect,T164M

# Variants of: B3
# Conditions: with aen_human AEN
row,effect of a mutation on the interaction,Variant
1,with no effect,R605Q
2,with no effect,Y456H
3,with no effect,S59G
4,with no effect,T164M

# Variants of: B3
# Conditions: with tri41_human TRIM41, Q8WV44
row,effect of a mutation on the interaction,Variant
1,with no effect,Y456H
2,with no effect,S59G
3,with no effect,T164M
4,with no effect,T654I

# Variants of: B3
# Conditions: with ntf2_human NUTF2, P61970
# ntf2_human NUTF2, P61970, sequence (P61970 whole entry): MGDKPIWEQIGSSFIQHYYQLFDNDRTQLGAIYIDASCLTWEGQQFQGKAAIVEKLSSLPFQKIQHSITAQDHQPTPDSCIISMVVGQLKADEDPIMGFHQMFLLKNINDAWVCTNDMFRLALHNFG
row,effect of a mutation on the interaction,Variant
1,with no effect,S59G

# Variants of: B3
# Conditions: with zn792_human ZNF792, Q3KQV3
# Remark: another data set of the same source
row,effect of a mutation on the interaction,Variant
1,with no effect,S59G
2,with no effect,T654I

# Variants of: B3
# Conditions: with aen_human AEN
# Remark: another data set of the same source
row,effect of a mutation on the interaction,Variant
1,with no effect,T654I
